As usually defined, the Kd is the concentration at which binding is half-saturated. Broadly, the koff is a measure of how fast the partners let go of each other. By kon is commonly meant a measure of how fast the partners come together. For orientation: EC50 means the concentration that produces a half-maximal response.

Assay [1] concerns the target T1, Recombinant Human CLL-1 Protein (his), Acro CLA-H5245 (human, UniProt Q5QGZ9 65-265).
T1 construct: also called Analyte 1; not shown: his tag
T1 sequence (looked up): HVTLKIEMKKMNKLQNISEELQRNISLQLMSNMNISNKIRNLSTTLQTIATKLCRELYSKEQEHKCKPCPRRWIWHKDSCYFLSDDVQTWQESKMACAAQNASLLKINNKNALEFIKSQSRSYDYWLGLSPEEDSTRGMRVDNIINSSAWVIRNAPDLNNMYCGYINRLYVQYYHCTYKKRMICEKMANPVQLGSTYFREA
As to the kind of experiment: SPR, antibody captured on Protein A chip, recombinant human CLL-1 as analyte 3.125-50 nM, 1:1 model. For orientation: Surface plasmon resonance follows binding to a sensor surface in real time, without labels.

For assay [2], the target named is T2, human CLL1 on the surface of transfected cells (HEK293-CLL1; HEK-293T membrane proteome array) (human, UniProt Q5QGZ9 1-265).
T2 construct: whole, on cells; also called HEK293-CLL1 cells; CLL1 target antigen
T2 sequence (looked up): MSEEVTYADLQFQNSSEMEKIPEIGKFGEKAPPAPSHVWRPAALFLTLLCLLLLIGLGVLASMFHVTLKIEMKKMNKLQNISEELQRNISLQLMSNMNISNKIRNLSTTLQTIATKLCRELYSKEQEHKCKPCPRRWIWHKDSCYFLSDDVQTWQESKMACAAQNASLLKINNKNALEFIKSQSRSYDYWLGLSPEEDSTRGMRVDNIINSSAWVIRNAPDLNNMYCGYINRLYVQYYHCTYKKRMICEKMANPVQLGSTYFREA
As to the kind of experiment: flow cytometry on HEK293 cells overexpressing CLL1. The source says:
In the present example, flow cytometry was used to detect the binding of antibodies hz27H4H1L1, hz27H4H1L2 and CLL1 on HEK293 cells.

The target in assay [3] is T3, Recombinant Cynomolgus Monkey CLL-1 Protein (his), Acro CLA-H5263 (cynomolgus monkey, UniProt A0A2K5WXQ4 71-271).
T3 construct: also called Analyte 2
T3 sequence: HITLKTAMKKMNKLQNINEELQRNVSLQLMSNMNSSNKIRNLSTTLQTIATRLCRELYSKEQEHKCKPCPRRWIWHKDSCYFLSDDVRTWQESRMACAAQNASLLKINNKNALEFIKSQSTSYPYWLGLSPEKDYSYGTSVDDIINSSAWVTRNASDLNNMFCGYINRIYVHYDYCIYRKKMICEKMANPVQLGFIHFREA
As to the kind of experiment: SPR, antibody captured on Protein A chip, cynomolgus CLL-1 as analyte.

The target in assay [4] is T4, human CLL1 ECD-His (human CLL1 extracellular domain with His tag) (human, UniProt Q5QGZ9 65-265).
T4 construct: also called antigen human CLL1 ECD-His; antigen CLL1; not shown: His tag
T4 sequence: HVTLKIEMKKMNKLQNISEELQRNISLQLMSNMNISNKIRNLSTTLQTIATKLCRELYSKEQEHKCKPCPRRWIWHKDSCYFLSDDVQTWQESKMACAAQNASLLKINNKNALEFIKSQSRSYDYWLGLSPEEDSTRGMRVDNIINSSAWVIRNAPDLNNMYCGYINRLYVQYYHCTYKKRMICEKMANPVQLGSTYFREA
As to the kind of experiment: BLI (ForteBio), antibody on AHC sensor, 60 nM human CLL1 ECD-His, 1:1 model. Here is the method: In short, 4 μg/mL antibody was loaded on the anti-human IgG capture (AHC) biosensor, the sensor was equilibrated offline for 30 min in the assay buffer, and the online monitoring was used for 60 s to establish the baseline; the antibody-loaded sensor was incubated with the 60 nM antigen human CLL1 ECD-His for 3 min, then transferred to the assay buffer, and the dissociation rate was measured after 3 min; the kinetic analysis was performed using a 1:1 binding model.
In general terms: BLI is a label-free optical method that tracks binding on a fibre tip over time.

B1: humanized antibody hz27H4H1L2 (antibody, V domains shown)
VH: EVQLVQSGAEVKKPGASVKVSCKASGYTFTGYHMHWVRQAPGQRLEWMGRINPYNGAASHNQKFKDRVTITRDTSASTAYMELSSLRSEDTAVYYCARGWDYDGGYYAMDYWGQGTLVTVSS
VL: DIVMTQSPLSLPVTPGEPASISCKSSQSLLYSDNQKNYLAWYLQKPGQSPQLLIYWASTRESGVPDRFSGSGSGTDFTLKISRVEAEDVGVYYCQQYYTYPYTFGQGTKLEIK
notes: Heavy chain variable region hz27H4H1 with light chain variable region hz27H4L2; also called h27H4H1L2 (complete antibody)
On to B1, for which, in assay [1], the Kd stood at 1.08 nM, the koff came out at 0.00544 s⁻¹ and the on-rate (kon) is 5.04e+06 M⁻¹ s⁻¹. The response in assay [2] was half-maximal at 0.321 µg/mL (EC50). The binding result in assay [3] was “no binding (tested: 50 nM)”. In assay [4], this molecule yielded a dissociation constant (Kd) of 2.21 nM, a Response of 0.726, an off-rate (koff) of 0.000976 s⁻¹ and a kon of 441000 M⁻¹ s⁻¹.

These data come from US20220396626A1 (GUANGZHOU BIO GENE TECHNOLOGY, published 2022).
